Values belong to the molecule of their own block, whether it stands above or below them.
Experiments:
[1] = target: keratin of human hair; test: quantitative hair binding test: human hair incubated with His-tagged comparison protein, detection with anti-polyhistidine peroxidase conjugate and TMB, absorption at 405 nm
[2] = target: keratin of human hair; test: quantitative hair binding test with the denatured (not renatured) protein: human hair, detection with anti-polyhistidine peroxidase conjugate and TMB, absorption at 405 nm
[3] = target: keratin of human hair; test: quantitative hair binding test: human hair incubated with renatured His-tagged KBD-B, detection with anti-polyhistidine peroxidase conjugate and TMB, absorption at 405 nm

A405 nm [1]: 0.088
Molecule: YaaD from B. subtilis (comparison protein, with His tag) (from UniProt P37527)

A405 nm [2]: 0.254 | A405 nm [3]: 1.59
B1: KBD-B (keratin-binding domain B of human desmoplakin), expressed by the vector pQE30-KBD-B in E. coli (protein)
chain: MRGSHHHHHHGSACELEPHTGLLLLSVQKRSMSFQGIRQPVTVTELVDSGILRPSTVNELESGQISYDEVGERIKDFLQGSSCIAGIYNETTKQKLGIYEAMKIGLVRPGTALELLEAQAATGFIVDPVSNLRLPVEEAYKRGLVGIEFKEKLLSAERAVTGYNDPETGNIISLFQAMNKELIEKGHGIRLLEAQIATGGIIDPKESHRLPVDIAYKRGYFNEELSEILSDPSDDTKGFFDPNTEENLTYLQLKERCIKDEETGLCLLPLKEKKKQVQTSQKNTLRKRRVVIVDPETNKEMSVQEGVDLQPSLIS

Source: patent US20080075684A1
